Test results taken from PMC2686265, “ATP and MO25α Regulate the Conformational State of the STRADα Pseudokinase and Activation of the LKB1 Tumour Suppressor” (PLoS Biology, 2009).

What was measured:
MO25α (M260A) = biological target: T1, MO25α (M260A) (Homo sapiens, UniProt Q7RTN6+Q9Y376, M260A); experiment: SPR BIAcore binding of STRADα to immobilised MO25α; settings: + ATP + Mg2+
T1 construct: wild-type and mutant forms of STRADα (residues 54–431) and MO25α (residues 1–341) were expressed individually as GST fusion proteins in E. coli; GST (cleaved yes); made in house; host or cells: E. coli
T1 sequence (Q9Y376 1-341 M260A): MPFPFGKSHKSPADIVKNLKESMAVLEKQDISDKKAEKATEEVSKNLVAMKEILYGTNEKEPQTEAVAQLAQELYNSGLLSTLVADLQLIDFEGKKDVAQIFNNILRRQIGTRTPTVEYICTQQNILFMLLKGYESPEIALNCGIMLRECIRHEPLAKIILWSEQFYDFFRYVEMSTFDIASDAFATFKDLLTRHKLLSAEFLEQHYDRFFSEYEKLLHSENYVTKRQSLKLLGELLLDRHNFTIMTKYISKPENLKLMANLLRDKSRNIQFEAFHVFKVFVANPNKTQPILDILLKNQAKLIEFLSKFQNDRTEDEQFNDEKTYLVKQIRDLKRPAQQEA
T1 sequence (Q7RTN6 59-431): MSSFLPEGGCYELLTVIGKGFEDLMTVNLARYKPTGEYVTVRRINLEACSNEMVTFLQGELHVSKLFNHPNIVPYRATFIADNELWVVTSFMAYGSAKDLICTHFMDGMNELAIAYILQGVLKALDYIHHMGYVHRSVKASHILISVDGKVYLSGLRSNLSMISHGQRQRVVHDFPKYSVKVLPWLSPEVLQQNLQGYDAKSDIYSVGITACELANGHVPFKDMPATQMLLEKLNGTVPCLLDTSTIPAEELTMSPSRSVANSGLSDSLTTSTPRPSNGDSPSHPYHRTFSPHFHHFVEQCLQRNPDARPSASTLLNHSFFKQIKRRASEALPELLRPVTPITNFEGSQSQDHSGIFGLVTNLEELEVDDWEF
Protocol: (§1) SPR measurements were performed using a BIAcore T100 instrument. Wild-type and mutant forms of MO25α were immobilized on a CM5 sensor chip using standard amine-coupling chemistry, and 10 mM HBS (pH 7.4) was used as the running buffer. The carboxymethyl dextran surface was activated with a 7-min injection of a 1∶1 ratio of 0.4 M 1-ethyl-3-(3-dimethylaminopropyl) carbodiimide hydrochloride (EDC)/0.1 M N-hydroxy succinimide (NHS). MO25α (5–7 µM) was coupled to the surface with a 1-min injection of protein diluted in 10 mM sodium acetate (pH 5.5). Remaining activated groups were blocked with a 7-min injection of 1 M ethanolamine (pH 8.5). MO25α was immobilised on three flow cells of a CM5 chip at densities 1,700–2,500 RU performed at 25°C, leaving one flow cell as a reference to subtract any possible nonspecific binding.
(§2) STRADα was prepared in running buffer containing 50 mM Tris (pH 7.8), 50 mM NaCl, 270 mM sucrose, 1 mM DTT, 0.005% P20, and 0.1 mg/ml BSA in the presence/absence of 100 µM ATP and 1 mM MgCl2, and injected over all four surfaces at nine concentrations of a 3-fold concentration series (5 µM to […]). Each concentration was injected in duplicate over all surfaces. Association was measured for 60 s at a flow rate of 50 µl/min, and dissociation was measured for 3 min. STRADα dissociated completely from the MO25α surfaces, thus eliminating the need for a regeneration step.
(§3) Data were analysed using Scrubber 2 (BioLogic Software) and CLAMP software. Data were double referenced to the reference surface to subtract any possible nonspecific binding and to the blank buffer injections to subtract drift of the target from surface. Data were fitted to a 1∶1 or 2∶1 binding site model where appropriate. Kinetic association (k a) and dissociation rate (k d) constants were separately determined from the BIAcore sensorgrams, and equilibrium dissociation constants (K d) were calculated as: K d1 = k d1/k a1 and K d2 = k d2/k a2. Equilibrium constants were also independently calculated from a saturation binding curve, by fitting the measured response (R) from specific binding to the following equation: R = (R max1[STRAD]/([STRAD]+K d1))+(R max2[STRAD]/([STRAD]+K d2)), where R max1 and R max2 are the relative maximal changes in response for sites 1 and 2, respectively, and K d1 and K d2 are the equilibrium dissociation constants for sites 1 and 2, respectively. Dose-response curves for calculating the Hill slope (H) of the data were fitted with the following equation: R = minimum+(maximum−minimum)/(1+10^((logEC50−[STRAD])×H)) using GraphPad-PRISM software.

MO25α (R227A) = biological target: T2, MO25α (R227A) (Homo sapiens, UniProt Q7RTN6+Q9Y376, R227A); experiment: SPR BIAcore binding of STRADα to immobilised MO25α; settings: + ATP + Mg2+
T2 construct: wild-type and mutant forms of STRADα (residues 54–431) and MO25α (residues 1–341) were expressed individually as GST fusion proteins in E. coli; GST (cleaved yes); made in house; host or cells: E. coli
T2 sequence (Q9Y376 1-341 R227A): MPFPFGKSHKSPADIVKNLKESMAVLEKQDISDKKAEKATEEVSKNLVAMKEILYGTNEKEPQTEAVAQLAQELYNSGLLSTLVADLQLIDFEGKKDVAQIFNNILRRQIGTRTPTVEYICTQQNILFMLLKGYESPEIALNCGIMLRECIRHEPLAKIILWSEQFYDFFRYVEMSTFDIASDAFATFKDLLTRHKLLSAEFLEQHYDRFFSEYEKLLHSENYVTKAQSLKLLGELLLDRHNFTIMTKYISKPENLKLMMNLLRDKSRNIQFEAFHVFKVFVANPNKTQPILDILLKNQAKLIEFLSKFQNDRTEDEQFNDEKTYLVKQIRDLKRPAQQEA
T2 sequence (Q7RTN6 59-431): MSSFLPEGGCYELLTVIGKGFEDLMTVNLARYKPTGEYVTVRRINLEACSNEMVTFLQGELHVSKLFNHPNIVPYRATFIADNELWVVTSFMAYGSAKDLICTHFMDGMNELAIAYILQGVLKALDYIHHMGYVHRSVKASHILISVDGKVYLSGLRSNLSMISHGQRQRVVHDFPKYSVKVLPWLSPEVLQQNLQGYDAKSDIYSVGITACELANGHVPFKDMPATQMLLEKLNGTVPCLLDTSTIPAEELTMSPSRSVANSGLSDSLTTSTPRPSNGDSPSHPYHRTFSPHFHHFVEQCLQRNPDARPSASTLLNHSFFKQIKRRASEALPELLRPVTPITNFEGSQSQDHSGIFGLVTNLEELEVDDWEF
Protocol: as §1, §2, §3

MO25α (WT) = biological target: T3, MO25α (WT) (Homo sapiens, UniProt Q7RTN6+Q9Y376); experiment: SPR BIAcore binding of STRADα to immobilised MO25α; settings: + ATP + Mg2+
T3 construct: wild-type and mutant forms of STRADα (residues 54–431) and MO25α (residues 1–341) were expressed individually as GST fusion proteins in E. coli; GST (cleaved yes); made in house; host or cells: E. coli (STRADα: BL21(DE3)pLysS, co-expressed with MO25α and then separated from it)
T3 sequence (Q9Y376 1-341): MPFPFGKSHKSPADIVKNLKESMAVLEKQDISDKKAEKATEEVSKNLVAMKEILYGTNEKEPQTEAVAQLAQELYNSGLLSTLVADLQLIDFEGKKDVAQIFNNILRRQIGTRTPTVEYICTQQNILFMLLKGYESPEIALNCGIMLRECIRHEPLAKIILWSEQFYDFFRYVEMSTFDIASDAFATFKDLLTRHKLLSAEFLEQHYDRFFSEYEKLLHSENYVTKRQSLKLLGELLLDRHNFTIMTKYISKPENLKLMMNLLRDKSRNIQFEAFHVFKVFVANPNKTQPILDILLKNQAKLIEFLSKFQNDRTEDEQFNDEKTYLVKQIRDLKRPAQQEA
T3 sequence (Q7RTN6 59-431): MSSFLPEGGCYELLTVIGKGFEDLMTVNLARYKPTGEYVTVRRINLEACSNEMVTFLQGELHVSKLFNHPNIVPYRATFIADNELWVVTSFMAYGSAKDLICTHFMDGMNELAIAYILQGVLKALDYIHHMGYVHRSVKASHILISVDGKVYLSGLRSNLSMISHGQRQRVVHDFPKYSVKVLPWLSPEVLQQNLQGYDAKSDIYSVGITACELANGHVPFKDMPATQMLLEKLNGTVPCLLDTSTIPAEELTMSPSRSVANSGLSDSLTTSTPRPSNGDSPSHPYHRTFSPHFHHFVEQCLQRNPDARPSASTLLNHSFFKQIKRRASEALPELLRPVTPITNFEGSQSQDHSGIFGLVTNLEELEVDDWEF
Protocol: as §1, §2, §3

[1] = biological target: T4, untagged STRADα (residues 59–431) (human, UniProt Q7RTN6 59-431); experiment: SPR; BIAcore T100, MO25α amine-coupled to CM5 chip, STRADα injected (5 µM to 0.3 nM), 25°C, 50 mM Tris pH 7.8, 50 mM NaCl, 270 mM sucrose, 1 mM DTT, 0.005% P20, 0.1 mg/ml BSA; without ATP; Kd = kd/ka; settings: both partners purified
T4 construct: STRADα, human, residues 59–431; also called STRADα lacking the His tag
T4 sequence (looked up): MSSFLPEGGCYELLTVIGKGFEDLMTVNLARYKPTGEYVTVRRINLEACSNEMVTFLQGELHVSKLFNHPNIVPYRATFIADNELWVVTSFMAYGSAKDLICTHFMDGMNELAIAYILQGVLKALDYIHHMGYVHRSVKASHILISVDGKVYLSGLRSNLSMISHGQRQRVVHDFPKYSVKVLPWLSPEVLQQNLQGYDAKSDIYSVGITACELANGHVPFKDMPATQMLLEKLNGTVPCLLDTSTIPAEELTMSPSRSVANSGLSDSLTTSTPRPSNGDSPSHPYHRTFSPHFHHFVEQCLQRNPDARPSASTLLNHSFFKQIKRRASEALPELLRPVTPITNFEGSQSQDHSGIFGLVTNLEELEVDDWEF

B1: His-STRADα: STRADα (residues 59–431) with N-terminal 6-His tag, SPR analyte (protein)
chain: MSSFLPEGGCYELLTVIGKGFEDLMTVNLARYKPTGEYVTVRRINLEACSNEMVTFLQGELHVSKLFNHPNIVPYRATFIADNELWVVTSFMAYGSAKDLICTHFMDGMNELAIAYILQGVLKALDYIHHMGYVHRSVKASHILISVDGKVYLSGLRSNLSMISHGQRQRVVHDFPKYSVKVLPWLSPEVLQQNLQGYDAKSDIYSVGITACELANGHVPFKDMPATQMLLEKLNGTVPCLLDTSTIPAEELTMSPSRSVANSGLSDSLTTSTPRPSNGDSPSHPYHRTFSPHFHHFVEQCLQRNPDARPSASTLLNHSFFKQIKRRASEALPELLRPVTPITNFEGSQSQDHSGIFGLVTNLEELEVDDWEF
modifications: lysines chemically methylated in the 2.35 Å crystal form only; left off: His6 with TEV site (…), N-terminal, kept
notes: STRADα (residues 59–431) with N-terminal 6-His tag, SPR analyte
kd1 (MO25α (M260A)): 0.77 (4.6 × 10−3) s−1
kd2 (MO25α (M260A)): 0.11 (5.3 × 10−4) s−1
kd1 (MO25α (R227A)): 1.61 (7.0 × 10−3) s−1
kd1 (MO25α (WT)): 0.55 (3.8 × 10−3) s−1
kd2 (MO25α (WT)): 0.08 (4.8 × 10−4) s−1

B2: MO25α (WT) (residues 1–341) (natural protein, human, UniProt Q9Y376 1-341, looked up)
chain: MPFPFGKSHKSPADIVKNLKESMAVLEKQDISDKKAEKATEEVSKNLVAMKEILYGTNEKEPQTEAVAQLAQELYNSGLLSTLVADLQLIDFEGKKDVAQIFNNILRRQIGTRTPTVEYICTQQNILFMLLKGYESPEIALNCGIMLRECIRHEPLAKIILWSEQFYDFFRYVEMSTFDIASDAFATFKDLLTRHKLLSAEFLEQHYDRFFSEYEKLLHSENYVTKRQSLKLLGELLLDRHNFTIMTKYISKPENLKLMMNLLRDKSRNIQFEAFHVFKVFVANPNKTQPILDILLKNQAKLIEFLSKFQNDRTEDEQFNDEKTYLVKQIRDLKRPAQQEA
notes: MO25α, human, residues 1–341 (full length); also called MO25α (WT, wild type); wild-type MO25α; source: E. coli, expressed individually as GST fusion, purified on glutathione-Sepharose, eluted with PreScission protease
Kd [1]: 3.8 µM

B3: MO25α (M260A) (residues 1–341) (natural protein, human, UniProt Q9Y376 1-341, looked up)
chain: MPFPFGKSHKSPADIVKNLKESMAVLEKQDISDKKAEKATEEVSKNLVAMKEILYGTNEKEPQTEAVAQLAQELYNSGLLSTLVADLQLIDFEGKKDVAQIFNNILRRQIGTRTPTVEYICTQQNILFMLLKGYESPEIALNCGIMLRECIRHEPLAKIILWSEQFYDFFRYVEMSTFDIASDAFATFKDLLTRHKLLSAEFLEQHYDRFFSEYEKLLHSENYVTKRQSLKLLGELLLDRHNFTIMTKYISKPENLKLMANLLRDKSRNIQFEAFHVFKVFVANPNKTQPILDILLKNQAKLIEFLSKFQNDRTEDEQFNDEKTYLVKQIRDLKRPAQQEA
notes: MO25α, human, residues 1–341 (full length), M260A; source: E. coli, expressed individually as GST fusion, purified on glutathione-Sepharose, eluted with PreScission protease
binding result [1]: binds
